± gives the standard deviation.
Assay: protein stability index of a GFP-peptide fusion (GPS, HEK-293T) (PSI 1-6); higher = more stable
[1] = treatment: DMSO, c terminus: a fixed tail appended
[2] = treatment: MLN4924 1 uM, 8 h, c terminus: a fixed tail appended
[3] = treatment: DMSO, c terminus: native
[4] = treatment: MLN4924 1 uM, 8 h, c terminus: native
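Note: 24-mer peptide tiles fused after GFP, lentivirally expressed, FACS-sorted into six equal bins by GFP/DsRed ratio, decoded by Illumina sequencing, PSI is the read-weighted mean bin number.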

Row | Sequence | protein stability index [1] | protein stability index [2] | protein stability index [3] | protein stability index [4]
1 | CHSESGKSRLVQLPPVAVRSLQDL [PCMTD2] | 3.44 ± 0.33 | 3.28 ± 0.28 | – | –
2 | QEHQSALEEAKQPKNDNVVIPECA [SMOC2] | 5.51 ± 0.23 | 5.46 ± 0.27 | – | –
3 | EPIPFWTFLSRILTGLNYEAPKYH [NSDHL] | 2.62 ± 0.23 | 2.76 ± 0.42 | – | –
4 | QLWELGKVLRKAGLSAGYVDAGAE [LPCAT4] | 2.13 ± 0.27 | 2.13 ± 0.36 | – | –
5 | VKISDFGLAKCNGLSHSHDLSMDG [RIPK4] | 2.95 ± 0.42 | 3.23 ± 0.37 | – | –
6 | LKKSNSAPSKKAAKDPGKGELPNH [FBF1] | 5.14 ± 0.1 | 5.08 ± 0.11 | – | –
7 | LKERYQKIGDTKRNTPIEALCENF [CSNK1G1] | 3.43 ± 0.65 | 3.44 ± 0.49 | – | –
8 | EMEEGVKESLCAKEEKCQGKGDDS [KCNA4] | 5.62 ± 0.19 | 5.57 ± 0.33 | – | –
9 | EIPDQNIDVEALQVAFGSLYRDDV [GMCL1] | 4.58 ± 0.32 | 4.64 ± 0.094 | – | –
10 | WQQQSYLDSGIHSGATTTAPSLSG [CTNNB1] | 3.71 ± 0.1 | 3.78 ± 0.33 | – | –
11 | KDGNTPLHVAARYGHELLINTLIT [ANKRD44] | 2.19 ± 0.15 | 2.3 ± 0.46 | – | –
12 | QFSSRDCTRPVPRNGGKYCEGRRT [ADAMTS4] | 4.22 ± 0.47 | 4.51 ± 0.55 | – | –
13 | ALDKQHSRDSAAITHSTYSLPASS [NOL4L] | 4.57 ± 0.065 | 4.5 ± 0.065 | – | –
14 | VNADIEKVNQNQAKRCTVIGGSGF [NSDHL] | 3.79 ± 0.2 | 3.87 ± 0.19 | – | –
15 | VCTFTYLLVGAAVFDALESDHEMR [KCNK9] | 2.9 ± 0.7 | 2.85 ± 0.15 | – | –
16 | EDRVKLFGIEIEVTDINDNAPKFQ [PCDHGA10] | 3.35 ± 0.43 | 3.52 ± 0.46 | – | –
17 | EPHKCPECGKRFLRSSDLYRHQRL [ZNF449] | 3.96 ± 0.36 | 4.39 ± 0.47 | – | –
18 | KHNHSKSTWLILHHKVYDLTKFLE [CYB5A] | 2.6 ± 0.55 | 2.49 ± 0.41 | – | –
19 | RRQLEACQRERAFSVKFEVQAPRW [OAS1] | 2.75 ± 0.23 | 2.93 ± 0.18 | – | –
20 | SKYHRFISFTLYLIGFCMFVLSLV [CDS2] | 2.04 ± 0.36 | 1.86 ± 0.51 | – | –
21 | KLRAMKELSEAAEAQHGPHSAVAR [STX11] | 4.51 ± 0.13 | 4.6 ± 0.17 | – | –
22 | QRTHTGEKPYGCIDCGKAFSQKSC [ZNF649] | 3.47 ± 0.27 | 3.87 ± 0.23 | – | –
23 | YGPLKPLPQTPHLEEDLKEVLRSE [MYBL2] | 5 ± 0.19 | 4.95 ± 0.24 | – | –

Row | Sequence | protein stability index [1] | protein stability index [2] | protein stability index [3] | protein stability index [4]
24 | IKVEQATKPSFESGRRGPPPPPRS [RBMX] | 4.06 ± 0.36 | 4.17 ± 0.34 | – | –
25 | PNRFLRGHRPPPARSGHRCVADNT [KLHDC10] | 4.04 ± 0.2 | 4.32 ± 0.34 | – | –
26 | PVNPELTAGPITGLVYRLNRFRVE [TRIM43] | 2.71 ± 0.29 | 2.85 ± 0.33 | – | –
27 | HAFPVVTENRGNEKEFMKGNQLIS [CLCN6] | 4.08 ± 0.078 | 4.12 ± 0.067 | – | –
28 | DPLSPMTASSLLSFAELFSFMLQD [FEM1C] | 2.71 ± 0.49 | 2.42 ± 0.51 | – | –
29 | VLITVEDVNDNSPELTITSLFSPV [PCDHGA10] | 2.3 ± 0.49 | 2.07 ± 0.19 | – | –
30 | AECFRIFDRNADGYIDPEELAEIF [TNNC2] | 5.32 ± 0.21 | 5.09 ± 0.15 | – | –
31 | PSNFLEIDVSNPQTVGVGRGRFTT [SNX3] | 3.84 ± 0.29 | 3.8 ± 0.59 | – | –
32 | EALNERHSIINALKAKLQMTEAAL [LRRC45] | 2.66 ± 0.2 | 2.91 ± 0.3 | – | –
33 | IVDPTTGKRYCRGKVLGKGGFAKC [PLK2] | 2.63 ± 0.38 | 2.92 ± 0.16 | – | –
34 | TESEARYSSQLSQVQSLITNVESQ [KRT33B] | 4.66 ± 0.31 | 4.75 ± 0.071 | – | –
35 | NGPLGPSEASIASNLQAMSTQMFQ [SMG5] | 3.93 ± 0.18 | 3.95 ± 0.074 | – | –
36 | SDLFRLQEYNIPGVIQSVIGWKTV [CDS2] | 2.28 ± 0.26 | 2.1 ± 0.28 | – | –
37 | QNLYFNCSSPGVQACSLPASCCID [TSPAN10] | 3.12 ± 0.22 | 3.25 ± 0.2 | – | –
38 | KHFCPRAPVILVGCQLDLRYADLE [RHOBTB2] | 2.3 ± 0.65 | 2.52 ± 0.59 | – | –
39 | LYRNGKDQDGDQAPEYRGRTELLK [MOG] | 4.59 ± 0.14 | 4.68 ± 0.34 | – | –
40 | EIILYWKHSTIFDVGENLTVPDEF [SLC25A25] | 2.23 ± 0.85 | 2.1 ± 0.39 | – | –
41 | PGSQTAVKNSNRYDVEMTDELVGL [FBXO34] | 4.98 ± 0.12 | 4.93 ± 0.27 | – | –
42 | ARKAMRNGISPIIIDNTNLHAWEM [N4BP2L1] | 2.33 ± 0.25 | 2.25 ± 0.42 | – | –
43 | RVIKCDPDCLRACQEQIEALLESS [CCND1] | 3.3 ± 0.3 | 3.19 ± 0.2 | – | –
44 | HHDKVQSLCYLQLTRQLVSCSSDG [WDFY1] | 2.2 ± 0.36 | 2.06 ± 0.28 | – | –
45 | GPPGSPGRAGAVGTPGERGPPGPP [EMID1] | 5.32 ± 0.84 | 4.81 ± 0.84 | – | –
46 | ISVLAFSVCFIFTITIGMFPAVTV [SLC29A1] | 2.96 ± 0.13 | 2.92 ± 0.32 | – | –

Row | Sequence | protein stability index [1] | protein stability index [2] | protein stability index [3] | protein stability index [4]
47 | EEAEGARWTSYRFSRVCRLHRGQL [TRIM35] | 2.91 ± 0.23 | 3 ± 0.08 | – | –
48 | CSQHWGGMASFRFPETTFISVTAY [TBX6] | 3.18 ± 0.6 | 2.85 ± 0.47 | – | –
49 | LPDAGSGRQPALRPHVHKQTEKTT [ISL2] | 5.26 ± 0.22 | 5.04 ± 0.23 | – | –
50 | SRILKKTVYNEMDKNRCELLSFLL [EDNRA] | 2.14 ± 0.67 | 1.96 ± 0.36 | – | –
51 | VSKELRMYDEKAHEWKSLAPMDAP [KLHL13] | 3.73 ± 0.36 | 4.04 ± 0.11 | – | –
52 | NGMAIIRPPGHHAQHSLMDGYCMF [HDAC6] | 2.37 ± 0.17 | 2.21 ± 0.31 | – | –
53 | DVAISANIADIEEKRGFTSHFVFV [NCF4] | 2.23 ± 0.6 | 2.55 ± 0.47 | – | –
54 | GPRRLVSCLSSQSSALSQSGGGST [SPACA3] | 3.81 ± 0.22 | 4 ± 0.19 | – | –
55 | FTRSQTLIQNGGEIDCVDKDGNTP [ANKRD44] | 4.74 ± 0.16 | 4.81 ± 0.21 | – | –
56 | TAHASAQSLAGGSRRTKEEELQC [TPD52L1] | – | – | 4.99 ± 0.1 | 4.88 ± 0.17
57 | TVVTGLGPDTQDLEGQSPPQSLPS [PBXIP1] | 5.07 ± 0.34 | 5.16 ± 0.098 | – | –
58 | ENTIAGANHTHTFYGHSHHSHHGH [C10orf62] | 3.58 ± 0.25 | 3.78 ± 0.23 | – | –
59 | RVMPTQEVQELPIPSKLLEFLSYR [WSB1] | 2.94 ± 0.26 | 2.95 ± 0.24 | – | –
60 | EELLYDYGDRSKASIEAHPWLKH [KMT5A] | – | – | 4.9 ± 0.39 | 4.83 ± 0.28
61 | RSQKHKERIRLLRQKREAAARKKY [C18orf25] | 4.17 ± 0.34 | 4.36 ± 0.31 | – | –
62 | LCRRLNTLNKCAVMKLEISPHRKR [DLC1] | 2.12 ± 0.069 | 2.85 ± 0.22 | – | –
63 | CAFLLLRLLVGLALATLRVLRGLA [TMEM175] | 3.56 ± 0.37 | 3.35 ± 0.086 | – | –
64 | QARQFRTFHHPTYGSCYTVDGVWT [SCNN1D] | 2.21 ± 0.19 | 2.3 ± 0.2 | – | –
65 | EEPCSPGLLQDQGSGLSSRFEEPK [CBY2] | 5.4 ± 0.19 | 5.29 ± 0.34 | – | –
66 | STSEDSLVKQECIKEVVEKREACH [FAN1] | 5.52 ± 0.22 | 5.23 ± 0.092 | – | –
67 | PHQREKIDKEIELHRILHHKHVVQ [PLK2] | 3.48 ± 0.19 | 3.73 ± 0.34 | – | –
68 | NSVSSHASSPYISSVQSYPGSASL [DLX1] | 3.65 ± 0.19 | 3.75 ± 0.23 | – | –
69 | LFAEEQAEGPNRLLYKDGFSTILH [LPCAT4] | 3.17 ± 0.24 | 3.1 ± 0.35 | – | –

Row | Sequence | protein stability index [1] | protein stability index [2] | protein stability index [3] | protein stability index [4]
70 | EDHKPGTFPKALTNGSFSPSGNNG [DLC1] | 4.89 ± 0.11 | 4.91 ± 0.37 | – | –
71 | HVAAAVLRIRSVEGRKKAFSTCGS [OR3A1] | 2.3 ± 0.24 | 2.22 ± 0.34 | – | –
72 | ASALTLVLGGRRLRRAWFSWPRAS [SCNN1D] | 2.13 ± 0.39 | 2.05 ± 0.28 | – | –
73 | LLQSFHGHGADVLCLDLAPSETGN [GNB5] | 3.23 ± 0.3 | 3.39 ± 0.14 | – | –
74 | TLSDWAAAVESVLHLGLPWRMLRP [PPEF2] | 3.1 ± 0.84 | 2.48 ± 0.37 | – | –
75 | EIETWVREHCPENRERVVSLIEDL [ZNF449] | 3.9 ± 0.2 | 4.01 ± 0.29 | – | –
76 | EVSQHIKMRMGGRVDFEEFVELIG [CABP4] | 2.44 ± 0.12 | 3 ± 0.44 | – | –
77 | SNGVEMAAKFPSGSQRARVVNTDH [SDE2] | 4.59 ± 0.2 | 4.58 ± 0.26 | – | –
78 | RLAAIAQEKDQEMERLRELQRASI [FBF1] | 4.34 ± 0.17 | 4.43 ± 0.22 | – | –
79 | DQEAVCLICAISHTHRAHTVVPLD [TRIM39] | 2.22 ± 0.21 | 2.19 ± 0.35 | – | –
80 | TVAMSTLNFCGPNVINHFYCDLPQ [OR3A1] | 2.39 ± 0.47 | 2.22 ± 0.17 | – | –
81 | TIEYLKRHNALLSKRLLALTSSDL [TMEM192] | 2.38 ± 0.42 | 2.17 ± 0.21 | – | –
82 | RLDFFEKPDYEYLRTLFTDLFEKK [CSNK1G1] | 2.54 ± 0.38 | 2.77 ± 0.41 | – | –
83 | FKCNYCGKSFRQRPSLVIHLRIHT [ZNF449] | 3.15 ± 0.46 | 3.35 ± 0.24 | – | –
84 | VLPHVPLGVIQRDLAKTGCVDLTI [AUP1] | 2.14 ± 0.25 | 2.37 ± 0.37 | – | –
85 | TGPLQPQPKKPEDEPQETAYRTQV [PKD2L1] | 5.11 ± 0.45 | 5.3 ± 0.2 | – | –
86 | MDSDMDYERPNVETIKCVVVGDNA [RHOBTB2] | 4.74 ± 0.21 | 4.87 ± 0.22 | – | –
87 | PVPILEKLPLQIDCLAAWEEWLLV [VPS39] | 2.24 ± 0.19 | 2.18 ± 0.27 | – | –
88 | RHAEQQALRLEVRAGPDSAGIALY [CARM1] | 2.54 ± 0.43 | 2.81 ± 0.7 | – | –
89 | ESWDEEDKRNYPSLELDKMAHGYG [CHGB] | 4.87 ± 0.1 | 4.87 ± 0.14 | – | –

Reference: the supplement of paper PMC10567573
